Results: the supplement of paper PMC10126150
± gives the standard deviation of the averaged measurements.

Test system: ATP
Experiment: switch fluorescence ratio, 500 uM ATP over buffer (Cy3 cluster intensity, sum of 5 cycles each) (fold (ratio)); higher = stronger signal-on switching upon ATP binding; sequences stand for … in TCGTCGGCAGCGTCAGATGTGTATAAGAGACAGTTTTTTTTTTTTTTTTTTTTTTTTT…TC
Details: aptamer strand: ATP DNA aptamer (quencher-CACCTGGGGGAGTATTGCGGAGGAAGG + anchor), 100 nM annealed; ATP concentration: 500 uM
Summary of the method: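 Exposure to 500 uM ATP lasted 15 min at 22 °C before imaging, and a selection-buffer image was taken beforehand, for Cy3-labelled switching-strand clusters on a modified Illumina MiSeq flow-cell annealed to 100 nM quencher-labelled ATP aptamer. Five buffer/ATP cycles were run with NaOH stripping and re-annealing between them. The fluorescence ratio per cluster is summed target-cycle over summed buffer-cycle Cy3 intensity, averaged per switch-domain sequence. Clusters outside 100-1000 RFU were excluded.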

Row | Sequence | switch fluorescence ratio
1 | AGGTAGGGGT | 1.01 ± 0.02
2 | AGGTATAAGG | 1.02 ± 0.019
3 | AGGTATACCT | 1.014 ± 0.0028
4 | AGGTATGGGG | 0.998 ± 0.034
5 | AGGTATTAGG | 0.988 ± 0.041
6 | AGGTCAGGCA | 1.002 ± 0.0075
7 | AGGTCCGCGA | 2.62 ± 0.17
8 | AGGTGAAGTT | 1.02 ± 0.062
9 | AGGTGAGATT | 1.02 ± 0.018
10 | AGGTGATTTT | 0.991 ± 0.013
11 | AGGTGCAGCA | 1.06 ± 0.15
12 | AGGTGCAGGC | 0.863 ± 0.082
13 | AGGTGCAGTG | 1.015 ± 0.0042
14 | AGGTGCGGGA | 1.02 ± 0.052
15 | AGGTGGCGTG | 0.944 ± 0.022
16 | AGGTGGCTAG | 1.026 ± 0.0052
17 | AGGTGGGCTG | 0.963 ± 0.024
18 | AGGTGGGGG | 0.979 ± 0.015
19 | AGGTGGGGGA | 0.995 ± 0.031
20 | AGGTGGGGTG | 1.03 ± 0.023
21 | AGGTGTACTG | 1.03 ± 0.058
22 | AGGTGTAGTG | 0.987 ± 0.016
23 | AGGTGTCGCG | 1.01 ± 0.02

Row | Sequence | switch fluorescence ratio
24 | AGGTGTGCGC | 1.01 ± 0.07
25 | AGGTGTTCTA | 1.02 ± 0.021
26 | AGGTGTTGT | 1.03 ± 0.053
27 | AGGTGTTTTT | 1.03 ± 0.032
28 | AGGTTAAAA | 1.03 ± 0.075
29 | AGGTTACCGC | 1.03 ± 0.048
30 | AGGTTATAGG | 1.05 ± 0.091
31 | AGGTTATGGT | 0.992 ± 0.052
32 | AGGTTATTTG | 0.978 ± 0.015
33 | AGGTTCAGGC | 0.9821 ± 0.0086
34 | AGGTTCATTA | 1.01 ± 0.023
35 | AGGTTCCACG | 0.996 ± 0.03
36 | AGGTTCGTTC | 0.97 ± 0.039
37 | AGGTTCTGGG | 1.01 ± 0.03
38 | AGGTTCTTA | 0.994 ± 0.06
39 | AGGTTGAACG | 0.985 ± 0.046
40 | AGGTTGCATG | 1.02 ± 0.079
41 | AGGTTGGGTA | 0.979 ± 0.015
42 | AGGTTGGTGG | 1 ± 0.016
43 | AGGTTGTATC | 1.01 ± 0.028
44 | AGGTTGTTAA | 1.0085 ± 0.0005
45 | AGGTTTATCA | 0.991 ± 0.028
46 | AGGTTTATGC | 0.977 ± 0.066

Row | Sequence | switch fluorescence ratio
47 | AGGTTTCGAG | 0.997 ± 0.023
48 | AGGTTTTGCA | 0.991 ± 0.019
49 | AGGTTTTGGT | 1 ± 0.055
50 | AGTAAAAAAG | 1.042 ± 0.0073
51 | AGTAAAATGT | 1 ± 0.021
52 | AGTAAAGGAA | 0.999 ± 0.014
53 | AGTAAAGTTG | 0.991 ± 0.024
54 | AGTAACAGCC | 1.001 ± 0.0066
55 | AGTAACTTGA | 1 ± 0.013
56 | AGTAAGGCTA | 1 ± 0.051
57 | AGTAAGGGCT | 0.99 ± 0.015
58 | AGTAAGGGTA | 1.0185 ± 0.00081
59 | AGTAAGTTTT | 1.032 ± 0.0011
60 | AGTAATAAGT | 0.979 ± 0.047
61 | AGTAATCGCT | 0.985 ± 0.01
62 | AGTAATTGGT | 0.9954 ± 0.0088
63 | AGTACGAGGA | 1.04 ± 0.035
64 | AGTACGGAAG | 1.02 ± 0.024
65 | AGTACTGTGG | 0.996 ± 0.032
66 | AGTAGAATCA | 1.01 ± 0.026
67 | AGTAGAATCG | 0.992 ± 0.033
68 | AGTAGATTAA | 0.986 ± 0.011
69 | AGTAGGGGTT | 0.979 ± 0.02

Row | Sequence | switch fluorescence ratio
70 | AGTAGGTCTG | 1.04 ± 0.046
71 | AGTAGGTTAG | 0.989 ± 0.04
72 | AGTATAACGA | 1.06 ± 0.016
73 | AGTATAGGGT | 0.972 ± 0.029
74 | AGTATAGTAG | 0.983 ± 0.019
75 | AGTATATCGC | 1 ± 0.022
76 | AGTATATCTG | 0.974 ± 0.02
77 | AGTATCGAGC | 1.02 ± 0.049
78 | AGTATCTCTT | 1.0161 ± 4.4e-05
79 | AGTATGGGGT | 0.996 ± 0.018
80 | AGTATGTAAA | 1.02 ± 0.017
81 | AGTATGTATA | 0.9957 ± 0.0083
82 | AGTATGTTTC | 1 ± 0.025
83 | AGTATTCGGG | 0.976 ± 0.058
84 | AGTATTCTAT | 1.004 ± 0.0034
85 | AGTATTGTCT | 1.039 ± 0.003
86 | AGTATTGTTT | 1.01 ± 0.02
87 | AGTCAAAAAA | 1.17 ± 0.3
88 | AGTCAGGGTC | 0.99 ± 0.032
89 | AGTCAGTGAC | 1.009 ± 0.0026
90 | AGTCATATAG | 1.062 ± 0.0056
91 | AGTCATTAGG | 1.03 ± 0.041
92 | AGTCATTCTC | 0.9841 ± 0.003

Row | Sequence | switch fluorescence ratio
93 | AGTCATTGTT | 0.989 ± 0.012
94 | AGTCCAAGGC | 1.02 ± 0.065
95 | AGTCCCCCTA | 1.08 ± 0.069
96 | AGTCCGGGAT | 1.07 ± 0.044
97 | AGTCCGTGCT | 1.05 ± 0.044
98 | AGTCCTTAAG | 1 ± 0.025
99 | AGTCGAAAGC | 1.01 ± 0.059
100 | AGTCGACTTT | 0.997 ± 0.011
101 | AGTCGCCTTT | 1.02 ± 0.056
102 | AGTCGGCGGA | 0.998 ± 0.014
103 | AGTCGGGAGG | 0.945 ± 0.062
104 | AGTCGGTAGG | 1.02 ± 0.012
105 | AGTCGGTGGA | 1 ± 0.011
106 | AGTCGTGGGC | 0.98 ± 0.041
107 | AGTCGTGTGT | 0.971 ± 0.046
108 | AGTCGTTGGA | 0.96555 ± 0.00011
109 | AGTCTAGATA | 1.0302 ± 0.00084
110 | AGTCTGAGCG | 1.03 ± 0.024
111 | AGTCTGGGGA | 0.99 ± 0.015
112 | AGTCTTAATA | 0.986 ± 0.034
113 | AGTGACCTAG | 1.017 ± 0.0039
114 | AGTGACGCGT | 1.007 ± 0.0033
115 | AGTGACTTTT | 0.9961 ± 0.0089

Row | Sequence | switch fluorescence ratio
116 | AGTGAGAATT | 1.013 ± 0.01
117 | AGTGAGCAGG | 1.11 ± 0.015
118 | AGTGATTGCA | 1.007 ± 0.004
119 | AGTGCACGTG | 1 ± 0.061
120 | AGTGCATTCT | 0.995 ± 0.049
121 | AGTGCCGGCA | 1.02 ± 0.051
122 | AGTGCGCTAT | 1.03 ± 0.01
123 | AGTGCGGAAG | 1.04 ± 0.066
124 | AGTGCGTCTT | 1.01 ± 0.021
125 | AGTGCTGATG | 0.998 ± 0.02
126 | AGTGCTGCGA | 1.02 ± 0.044
127 | AGTGCTGTTC | 0.929 ± 0.082
128 | AGTGGAAATT | 1.01 ± 0.049
129 | AGTGGACAGC | 1 ± 0.031
130 | AGTGGACTAG | 0.989 ± 0.026
131 | AGTGGAGCGG | 0.995 ± 0.016
132 | AGTGGAGGT | 0.97 ± 0.041
133 | AGTGGCACCG | 1.01 ± 0.015
134 | AGTGGCATTA | 0.985 ± 0.028
135 | AGTGGCCGTC | 0.974 ± 0.051
136 | AGTGGCGTTC | 1.01 ± 0.073
137 | AGTGGCTATC | 1.01 ± 0.018
138 | AGTGGGAGAG | 1.02 ± 0.06

Row | Sequence | switch fluorescence ratio
139 | AGTGGGAGTA | 1.05 ± 0.052
140 | AGTGGGGGGC | 0.998 ± 0.02
141 | AGTGGGGGTA | 0.995 ± 0.028
142 | AGTGGGTATT | 1.01 ± 0.016
143 | AGTGGGTTCA | 0.9842 ± 0.0034
144 | AGTGGTCCTT | 0.974 ± 0.047
145 | AGTGGTGGG | 1.02 ± 0.068
146 | AGTGGTGGGG | 0.966 ± 0.014
147 | AGTGGTTCGC | 1.01 ± 0.024
148 | AGTGGTTGAA | 0.99 ± 0.028
149 | AGTGTAAAAA | 1.04 ± 0.078
150 | AGTGTAAAGG | 0.991 ± 0.076
151 | AGTGTGATCA | 0.9859 ± 0.008
152 | AGTGTGCGGT | 0.9491 ± 0.0089
153 | AGTGTGTCGG | 0.974 ± 0.067
154 | AGTGTGTCTT | 0.9877 ± 0.004
155 | AGTGTGTTAT | 0.974 ± 0.011
156 | AGTGTTAGTT | 1 ± 0.024
157 | AGTTAAGGCC | 1.09 ± 0.092
